Experimental data taken from paper PMC4712191.

T1: BmExd1 full-length (UniProt H9IUR0 1-315)
T1 sequence: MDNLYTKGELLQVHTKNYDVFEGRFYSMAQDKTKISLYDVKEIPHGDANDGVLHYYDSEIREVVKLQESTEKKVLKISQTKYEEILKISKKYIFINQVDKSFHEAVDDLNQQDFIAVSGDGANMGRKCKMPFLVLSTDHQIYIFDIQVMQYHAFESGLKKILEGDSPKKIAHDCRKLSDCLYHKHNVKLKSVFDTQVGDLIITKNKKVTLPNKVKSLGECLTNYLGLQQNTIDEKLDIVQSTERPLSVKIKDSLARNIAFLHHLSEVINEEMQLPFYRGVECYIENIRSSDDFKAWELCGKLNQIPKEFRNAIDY


What was measured:
[1] = molecular target: recombinant full-length BmExd1 (Bombyx mori); assay: AUC
BmExd1 full-length = molecular target: T1, BmExd1 full-length; assay: ITC

Row | Molecule | stoichiometry N [1] | Kd (BmExd1 full-length) [µM]
1 | recombinant full-length BmExd1 (natural protein) | 2 | 
2 | GGGGUAUUCUUUAAUUAUUUC (ssRNA) [ITC RNA (21 nt)] |  | 27
